Measured values reported in the supplement of paper PMC10126150.
± gives the standard deviation of the averaged measurements.

test system: ATP; assay: switch fluorescence ratio, 500 uM ATP over buffer (Cy3 cluster intensity, sum of 5 cycles each) (fold (ratio)); higher = stronger signal-on switching upon ATP binding; sequences stand for … in TCGTCGGCAGCGTCAGATGTGTATAAGAGACAGTTTTTTTTTTTTTTTTTTTTTTTTT…TC; details: aptamer strand: ATP DNA aptamer (quencher-CACCTGGGGGAGTATTGCGGAGGAAGG + anchor), 100 nM annealed; ATP concentration: 500 uM
Outline: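 For every switch-domain sequence, the fluorescence ratio is the mean of per-cluster values, each being summed target-cycle Cy3 intensity over summed buffer-cycle Cy3 intensity. Clusters outside 100-1000 RFU were excluded. On a modified Illumina MiSeq flow-cell, the Cy3-labelled switching-strand clusters were annealed to 100 nM quencher-labelled ATP aptamer, imaged in selection buffer and then after 15 min with 500 uM ATP at 22 °C. Five such cycles were run, with NaOH stripping and re-annealing between them.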
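Note: ATP exposure 15 min at 22 °C before imaging.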

| Sequence | switch fluorescence ratio |
| --- | --- |
| AGATATTTAT | 0.987 ± 0.014 |
| AAAAGTGTTA | 0.977 ± 0.027 |
| GAGGTGGTTA | 0.976 ± 0.015 |
| TTAAGGATGT | 1 ± 0.014 |
| TCCTCGGGGG | 0.989 ± 0.027 |
| ATTCTAGTAT | 0.962 ± 0.026 |
| TGTGATTGGC | 1.03 ± 0.041 |
| AAATTGGCAG | 1.06 ± 0.16 |
| CTGGTGTCGA | 0.978 ± 0.013 |
| AAGTTTTGGT | 0.964 ± 0.019 |
| CGACGAGGCT | 1.21 ± 0.024 |
| ATCCGGTTAC | 5.17 ± 0.68 |
| CGGGTAATTC | 1.128 ± 0.0039 |
| CGATGTGCGG | 1.03 ± 0.062 |
| GGTTATGGG | 0.993 ± 0.038 |
| TACGAATCTG | 1.03 ± 0.019 |
| GAGCGAGGAA | 0.98171 ± 0.00093 |
| GGGTAATTTT | 1.02 ± 0.047 |
| CGGAAACAAA | 1.01 ± 0.075 |
| TCTATGCTTC | 1.9 ± 1.1 |
| AGGTAGCATA | 1.05 ± 0.03 |
| GGACCAAGGT | 1.01 ± 0.014 |
| GAGGCCGTTG | 1.02 ± 0.023 |
| TAGGTGGTTG | 1 ± 0.03 |
| TCTGATTGTG | 0.972 ± 0.047 |
| TCTGGGAGGC | 1.01 ± 0.021 |

| Sequence | switch fluorescence ratio |
| --- | --- |
| TTTCGAAACT | 1 ± 0.038 |
| CTAAAATTGA | 0.985 ± 0.038 |
| TTTGAGTCCG | 1.04 ± 0.065 |
| TGAGTATTGC | 0.969 ± 0.04 |
| AGTGAGATGA | 1 ± 0.04 |
| ACGCCAATGT | 1.34 ± 0.076 |
| TTCTGCGTAT | 1.01 ± 0.036 |
| GGGGTAGTCA | 1 ± 0.035 |
| TACATAGGCA | 1.03 ± 0.035 |
| GAGGGGGATC | 1.02 ± 0.035 |
| GGGGGGGCCC | 1.01 ± 0.026 |
| TTTCTGGCTA | 1.08 ± 0.053 |
| CCTGGTGAGG | 1.04 ± 0.072 |
| TTTTTTGTTG | 0.987 ± 0.029 |
| ATATGTGTGA | 0.968 ± 0.029 |
| TCAAATGGGC | 0.9965 ± 0.0031 |
| AGGGGGAGGG | 1.01 ± 0.03 |
| TGATTATTT | 0.978 ± 0.032 |
| CTGAATATTC | 1.021 ± 0.0036 |
| ATTGGGCAGT | 0.973 ± 0.053 |
| CCAGGATTGG | 1 ± 0.006 |
| CCGGTTGTGG | 1.01 ± 0.02 |
| GATTACGGGA | 1.052 ± 0.0098 |
| TGGTATGCGT | 1.02 ± 0.024 |
| ACGGGGGTT | 0.98 ± 0.017 |
| CGTATATTAA | 0.975 ± 0.068 |

| Sequence | switch fluorescence ratio |
| --- | --- |
| CTGTAAGCGG | 1.03 ± 0.03 |
| TTGGGTTGCG | 0.964 ± 0.035 |
| TCCACATATC | 1.5 ± 0.0073 |
| GAATTCAGGG | 0.99 ± 0.014 |
| GGGGGTTGTG | 1 ± 0.036 |
| TTGGAGGGGG | 1.01 ± 0.039 |
| GTCGGGAGGA | 0.998 ± 0.025 |
| CACCGAGTTA | 1.04 ± 0.032 |
| TATTGGTGGG | 0.9663 ± 0.008 |
| CAGGGGGAAC | 1.04 ± 0.061 |
| TTGGGGAACC | 0.9866 ± 0.009 |
| AGTAAAGCGG | 1 ± 0.027 |
| TAACGGGATG | 1 ± 0.017 |
| GGGCTGTGGG | 1.01 ± 0.022 |
| CACAGGGCTG | 1.026 ± 0.0059 |
| GACGGAGGGG | 1.01 ± 0.027 |
| AAGTGGCTTT | 1 ± 0.014 |
| TCTTGATTGT | 0.974 ± 0.017 |
| AGGGTTAGTG | 0.979 ± 0.012 |
| GTGCTTGTGT | 1.01 ± 0.04 |
| TCCCATGTTG | 1.05 ± 0.054 |
| TCAAGCTCAT | 0.974 ± 0.023 |
| TATAATAAGG | 0.9996 ± 0.0098 |
| TCCCATATAT | 1.09 ± 0.014 |
| GATCTAGGAG | 1.02 ± 0.017 |
| TGAGTGCAGC | 1.08 ± 0.12 |

| Sequence | switch fluorescence ratio |
| --- | --- |
| TTTAGAGAGT | 1.01 ± 0.018 |
| GAGGATCTTG | 1 ± 0.031 |
| ATTGAAGATT | 0.989 ± 0.037 |
| GGTGATGGTG | 0.976 ± 0.047 |
| CGGGATGACA | 0.979 ± 0.046 |
| GATTTTGTAG | 1.01 ± 0.028 |
| TTTAAGGTTT | 0.998 ± 0.013 |
| AAAATCTAAA | 1.014 ± 0.0068 |
| TCGTAGGGTT | 1.01 ± 0.04 |
| TGATTTTTGT | 0.997 ± 0.021 |
| TTGTGGTAAG | 0.992 ± 0.022 |
| AGGTTTGCAA | 1.04 ± 0.028 |
| CGGATGCGGT | 1.013 ± 0.0075 |
| GATGCGGTTT | 0.994 ± 0.019 |
| CAGGTTGTTC | 1.005 ± 0.0011 |
| TTTTAGGTAA | 0.9745 ± 0.0034 |
| GACTACATTA | 1.03 ± 0.025 |
| AAAGTTAGTT | 1.03 ± 0.019 |
| TAGGTCCAAT | 1.01 ± 0.015 |
| AGGGGGGGTT | 0.992 ± 0.033 |
| AGGGGAAGGG | 1.02 ± 0.012 |
| CGTATGGGGC | 0.948 ± 0.087 |
| TACATTCGCG | 1.01 ± 0.035 |
| ATGAGAATTT | 1.01 ± 0.049 |
| TGTGTGCTGA | 1.02 ± 0.028 |
| TAGGAAAGAA | 1.03 ± 0.028 |

| Sequence | switch fluorescence ratio |
| --- | --- |
| TTTTAATTGA | 1.02 ± 0.031 |
| CACCGAAATG | 1.17 ± 0.1 |
| TTTATTGTTA | 1.05 ± 0.068 |
| TAGCAGGTTA | 1 ± 0.016 |
| GAGAAAGTGG | 0.9924 ± 0.001 |
| CGGAGTGGGG | 1.01 ± 0.012 |
| TGAGATAACA | 0.9943 ± 0.0033 |
| GGACAATATA | 1.003 ± 0.0016 |
| TTCACGGGTT | 1.01 ± 0.021 |
| GGGCTAGGAG | 0.987 ± 0.014 |
| ATGTAAAGCA | 1.02 ± 0.036 |
| TCGGAGTACT | 1.16 ± 0.03 |
| TCGTAATCGC | 1.4113 ± 0.0014 |
| TTGTTTGATG | 1.01 ± 0.011 |
| TGGGGGATTT | 1.27 ± 0.74 |
| TGGATCCCCA | 1.06 ± 0.091 |
| ACCGGTTACC | 1.09 ± 0.029 |
| TAGGTCTGTG | 0.987 ± 0.014 |
| CCATTTTGCC | 0.9878 ± 0.00023 |
| ATAATAGGG | 0.9773 ± 0.0019 |
| TTTTTCATAA | 0.999 ± 0.027 |
| GCACCTATGG | 0.979 ± 0.025 |
| CTGGCTGCGG | 1.01 ± 0.039 |
| ATTCGTTGG | 1 ± 0.038 |
| CTGTATTACG | 0.995 ± 0.027 |
| CGGTCAACAC | 1.66 ± 0.15 |

| Sequence | switch fluorescence ratio |
| --- | --- |
| ACGGGCCTTC | 1.03 ± 0.012 |
| GCTCTGGGGA | 1.07 ± 0.12 |
| GCAGCATGC | 1.1 ± 0.17 |
| ACAGTCGTCT | 0.949 ± 0.042 |
| TTTTGCGTTT | 0.992 ± 0.07 |
| AAGTTCAGTG | 1.014 ± 0.0068 |
| TTTGATGTAA | 1.01 ± 0.026 |
| GATGAGGGGT | 0.986 ± 0.038 |
| TGCGAATTCT | 1.03 ± 0.011 |
| ACTCCATGCG | 1.155 ± 0.0036 |
| CGTGAATAGT | 1.03 ± 0.041 |
| TTTATAACGG | 0.988 ± 0.038 |
| GATTGTTCGT | 1.031 ± 0.0085 |
| CGATTGGAGT | 0.9864 ± 0.0058 |
| GAAAAAAGTG | 0.994 ± 0.047 |
| AGGTGAATGG | 1.02 ± 0.03 |
| GAGAGTATGT | 0.998 ± 0.043 |
| AGTGTAGGGA | 1.01 ± 0.029 |
| GTTTTTACGG | 1.04 ± 0.0059 |
| ATGCAGTATT | 1.03 ± 0.025 |
| CTGTACGACA | 1.18 ± 0.02 |
| AAGGGGAGAG | 0.993 ± 0.018 |
| CGGGTTAGTT | 1.002 ± 0.01 |
